The supplement of paper PMC10126150
± gives the standard deviation of the averaged measurements.

System: ATP
Experiment: switch fluorescence ratio, 500 uM ATP over buffer (Cy3 cluster intensity, sum of 5 cycles each) (fold (ratio)); higher = stronger signal-on switching upon ATP binding; sequences stand for … in TCGTCGGCAGCGTCAGATGTGTATAAGAGACAGTTTTTTTTTTTTTTTTTTTTTTTTT…TC
Conditions: aptamer strand: ATP DNA aptamer (quencher-CACCTGGGGGAGTATTGCGGAGGAAGG + anchor), 100 nM annealed; ATP concentration: 500 uM
Outline: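 For every switch-domain sequence, the fluorescence ratio is the mean of per-cluster values, each being summed target-cycle Cy3 intensity over summed buffer-cycle Cy3 intensity. Clusters outside 100-1000 RFU were excluded. On a modified Illumina MiSeq flow-cell, the Cy3-labelled switching-strand clusters were annealed to 100 nM quencher-labelled ATP aptamer, imaged in selection buffer and then after 15 min with 500 uM ATP at 22 °C. Five such cycles were run, with NaOH stripping and re-annealing between them.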
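Also: ATP exposure 15 min at 22 °C before imaging.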

Row | Sequence | switch fluorescence ratio
1 | ATTTACATAT | 1.03 ± 0.015
2 | GCGAATTTTG | 0.9994 ± 0.0081
3 | TTTCTATGGG | 1.03 ± 0.033
4 | GCTCAGGGGA | 1.21 ± 0.097
5 | GGCGGTGGCA | 1.01 ± 0.026
6 | GGGTGTTTGG | 1.03 ± 0.026
7 | ACATTGTTTT | 1.02 ± 0.021
8 | AACCATACTA | 1.19 ± 0.028
9 | TGTGACTCGG | 0.978 ± 0.016
10 | GGCCGGGGCT | 1.01 ± 0.026
11 | ATATTTACCG | 1.04 ± 0.011
12 | TCATTGGCAT | 1.03 ± 0.037
13 | GGGACTTTCT | 1.01 ± 0.0092
14 | ATGGGAGCTG | 0.9831 ± 0.0037
15 | CTAGGTCGGA | 1.01 ± 0.021
16 | TCCAAAATGG | 1.09 ± 0.04
17 | GGTCTGGGGT | 1.09 ± 0.21
18 | TCTAAAGTGT | 0.983 ± 0.0088
19 | GGGAGTCAGC | 1.012 ± 0.008
20 | CGGCGGGGGC | 0.998 ± 0.022
21 | TTTTGCTGGG | 1.03 ± 0.11
22 | AGCAGGGACT | 1.051 ± 0.0077
23 | AGGGCGGGGA | 1.01 ± 0.058
24 | ATTGAACAT | 0.984 ± 0.015
25 | GTTGCTACTG | 1.05 ± 0.041

Row | Sequence | switch fluorescence ratio
26 | GTTTCAGGTT | 2.12 ± 1.6
27 | CGGTCACGCG | 0.972 ± 0.039
28 | AGGTGTTTTT | 1.03 ± 0.032
29 | TTATCCGGTT | 1.01 ± 0.012
30 | CGCTCTTGTA | 0.991 ± 0.012
31 | TTGCTGGGCC | 1.02 ± 0.088
32 | TCAATGCGAT | 1.33 ± 0.19
33 | TAAGTTTGCA | 1.003 ± 0.0077
34 | GGATTTTGGA | 1 ± 0.018
35 | CGGGCAGGTA | 1.044 ± 0.0039
36 | GAGGGATTGG | 1.05 ± 0.12
37 | GGGTTATGAA | 0.994 ± 0.022
38 | AAGGCGTACT | 1.03 ± 0.026
39 | ACTACCTTAC | 3.15 ± 0.077
40 | CCGGGGTCTG | 0.995 ± 0.035
41 | CCAGAGGTGT | 1.6 ± 0.064
42 | TCGGCACCGG | 1.02 ± 0.024
43 | GGGGGGCCGA | 1.01 ± 0.03
44 | CGCTGGATAG | 1.08 ± 0.051
45 | TGCGGTTATG | 1.07 ± 0.051
46 | ACTGAGGATA | 1 ± 0.037
47 | TATTGGGAGG | 0.968 ± 0.023
48 | ATACTATCTA | 1.03 ± 0.017
49 | TCGGGCAGCG | 0.989 ± 0.058
50 | GGGGGTATGG | 0.983 ± 0.032

Row | Sequence | switch fluorescence ratio
51 | TTTCCTAGTT | 1.032 ± 0.0028
52 | GCCGCGAAGG | 1.02 ± 0.018
53 | TTGGGCCAGG | 1.14 ± 0.12
54 | CGCGGCTGGG | 1 ± 0.026
55 | AATAAAAGTT | 1.1 ± 0.14
56 | GGTAATTTGA | 0.989 ± 0.024
57 | GCTTCTATGC | 1.02 ± 0.037
58 | ATACGATGAT | 1.04 ± 0.017
59 | AGTGTGATCA | 0.9859 ± 0.008
60 | GTCAAAGATT | 0.98 ± 0.014
61 | GGGGTGAGTT | 0.931 ± 0.072
62 | GTTAAAATTA | 1.01 ± 0.015
63 | ATTGGGGGGC | 1.01 ± 0.036
64 | TTAAGCATTT | 1.021 ± 0.0047
65 | ATTTGCAGGA | 0.992 ± 0.046
66 | GTTGACTGGT | 0.95 ± 0.016
67 | AAATGTTCGT | 1.011 ± 0.0058
68 | CGCTGGGTCA | 1.04 ± 0.13
69 | TAACACGTCG | 0.9947 ± 0.0081
70 | GAGGGCACGA | 1.09 ± 0.086
71 | TGCTCCTTCT | 1.09 ± 0.011
72 | CGCTAATCAG | 1.05 ± 0.043
73 | AATATCTGAC | 1.18 ± 0.046
74 | AAGCATAGTC | 1.06 ± 0.036
75 | GGTTGATGGG | 0.999 ± 0.038

Row | Sequence | switch fluorescence ratio
76 | GGGGGATTAA | 1 ± 0.017
77 | AAAAAAGTTA | 1 ± 0.064
78 | TTTTGAAGGT | 0.997 ± 0.0099
79 | CGGGGGTTTT | 0.994 ± 0.034
80 | TTTTAAAAGA | 0.995 ± 0.027
81 | AAAGAGAGAC | 1.0086 ± 0.00021
82 | CGTGTACGGA | 1.022 ± 0.0021
83 | CGGGGCGCTA | 1.21 ± 0.29
84 | TGGTAGGAGA | 0.979 ± 0.013
85 | GGTTTGGGAG | 1 ± 0.036
86 | GCTTTACCAG | 0.989 ± 0.013
87 | AATTTTCAGA | 1.03 ± 0.019
88 | TGGGGAAGAG | 1.02 ± 0.027
89 | GCGTGATTGC | 1.06 ± 0.031
90 | AAAACAGTAA | 1.02 ± 0.032
91 | AGGGGGATTA | 0.993 ± 0.019
92 | AAGAAGAGGT | 1.15 ± 0.17
93 | AGCGTTAGAG | 1.09 ± 0.017
94 | GTTTCAGGT | 0.991 ± 0.027
95 | TTTTGCTGGA | 1.02 ± 0.031
96 | TTTCGTAGAG | 1 ± 0.011
97 | AGTTGGGGGT | 0.998 ± 0.025
98 | TGGGAGGATG | 1.01 ± 0.039
99 | CCAGTAGGTC | 1.03 ± 0.022
100 | TTTATAGCT | 1.02 ± 0.027

Row | Sequence | switch fluorescence ratio
101 | ATGGGGCACT | 0.9789 ± 0.0042
102 | TTTTCGGATG | 1.02 ± 0.028
103 | ATGGCAGGGC | 1.01 ± 0.016
104 | CGACGATGAC | 5.46 ± 0.077
105 | CGTTGGGCTG | 1.02 ± 0.038
106 | AGAATCAGCA | 1.01 ± 0.019
107 | GTTTTGGGGA | 0.996 ± 0.011
108 | ATTTGATTCG | 1.008 ± 0.0087
109 | ATAAAAGGGG | 1.001 ± 0.0097
110 | GAGGGGGATG | 0.979 ± 0.026
111 | CTAGTCAATC | 1.7 ± 0.072
112 | AGTGCTGATG | 0.998 ± 0.02
113 | GGAGGGGGAA | 1 ± 0.031
114 | TTTAAAAGAT | 1.01 ± 0.035
115 | GGGGAGTGGG | 0.989 ± 0.051
116 | TGTAGGGTAG | 0.958 ± 0.017
117 | AGGTGGCGTG | 0.944 ± 0.022
118 | GCGTTACTTA | 1.06 ± 0.018
119 | ATATCCGACA | 1.054 ± 0.0056
120 | TTTATTCTAT | 1.02 ± 0.011
121 | AAATGTTCCG | 1.03 ± 0.011
122 | AGGTAGGGAA | 0.9928 ± 0.0037
123 | GGGCTTTGTG | 1 ± 0.01
124 | GGAGGCAGGA | 1.015 ± 0.0036
125 | GATAGGGTAT | 0.986 ± 0.015

Row | Sequence | switch fluorescence ratio
126 | TTAGTCGTGC | 1.01 ± 0.026
127 | TTTTTCTAGT | 1.01 ± 0.02
128 | TTTATCGCCG | 0.974 ± 0.022
129 | TTCATTTTAG | 1.02 ± 0.031
130 | CAAGCCGTGT | 1.02 ± 0.036
131 | TTGAGCGGGT | 1.11 ± 0.091
132 | TAGGAGGTCC | 0.96 ± 0.081
133 | ATAGGTTTTG | 0.9864 ± 0.004
134 | GGGTTGACCT | 1.07 ± 0.067
135 | TTAGATTGTG | 0.978 ± 0.03
136 | GTGAAAGTGG | 0.979 ± 0.028
137 | GGTGTTGTG | 0.974 ± 0.081
138 | TTCAGGATTA | 0.9939 ± 0.0091
139 | GATTCTTTTC | 0.991 ± 0.014
140 | GGTCCGTCGA | 1.02 ± 0.064
141 | ATATTAGTTA | 0.997 ± 0.05
142 | CATGGGTCCT | 1.04 ± 0.033
143 | ATATGTATGC | 0.97875 ± 3.4e-05
144 | GGGGGGGTCT | 0.973 ± 0.044
145 | GACCTTTTTC | 1.03 ± 0.068
146 | ACGGTTTTAC | 1.12 ± 0.012
147 | GGGTGCTTTG | 1.02 ± 0.029
148 | AAAGAGTGCG | 1 ± 0.042
149 | TGTGACAGTT | 1.09 ± 0.1
150 | AAGTAAGTTG | 0.9806 ± 0.0064

Row | Sequence | switch fluorescence ratio
151 | AGGGGTAGGT | 0.982 ± 0.019
152 | TCGGGTAGTG | 1.01 ± 0.026
153 | ATTGTGGGAC | 0.996 ± 0.077
154 | GTATGAAATG | 0.999 ± 0.022
155 | CACTTTCATG | 1.013 ± 0.0021
156 | TATAAAACGG | 1.14 ± 0.045
157 | TTAGGGATAC | 1.88 ± 0.88
158 | GCCCCGTTTG | 1.0184 ± 0.00021
159 | GTATGAGGCG | 0.981 ± 0.04
160 | TAATTCGACT | 1.02 ± 0.029
161 | CTTATTAGCG | 1.03 ± 0.019
162 | TAAATTTTCT | 1.06 ± 0.015
163 | TTTTATGATT | 0.997 ± 0.04
164 | CAGGGGGGGC | 1.01 ± 0.026
165 | GCCGTAGTGC | 1.01 ± 0.03
166 | AAAAAGTTGG | 1.005 ± 0.0099
167 | ATAAAAAGGT | 0.987 ± 0.013
168 | ATGAGAAGTG | 0.969 ± 0.014
169 | GGGGTGTTTG | 0.981 ± 0.022
170 | TTACAAGAAA | 1.03 ± 0.041
171 | ATAGGTATTC | 0.976 ± 0.026
172 | CAGGTTTTGT | 1.01 ± 0.036
173 | CTGAAGCTGT | 2.64 ± 1.3
174 | TTGTATCTTC | 0.993 ± 0.041
175 | TGTTTGAGGT | 0.999 ± 0.033

Row | Sequence | switch fluorescence ratio
176 | GCGGGAAAGT | 0.9568 ± 0.009
177 | TCCAGAGCGG | 1.34 ± 0.47
178 | AGTTGGAGGA | 0.991 ± 0.015
179 | TTTTTATTCC | 1.02 ± 0.034
180 | ACATATAGAG | 1.051 ± 0.0097
181 | CCTGACTTTG | 0.972 ± 0.043
182 | TTTTCGGACG | 1.03 ± 0.05
183 | TGAAATGGGT | 1.17 ± 0.24
184 | TTCGTAGTGG | 1 ± 0.013
185 | AATGATTAGT | 0.998 ± 0.032
186 | GAACTTTCTG | 1.006 ± 0.0063
187 | TTGTTAAATG | 1.02 ± 0.056
188 | CGTAGAATGT | 0.992 ± 0.022
189 | TAATTGGAGT | 0.972 ± 0.014
190 | GTTAGTATAA | 0.9894 ± 0.0074
191 | GCTCTTAGTT | 0.992 ± 0.018
192 | GAAGTAAGTC | 1.104 ± 0.0051
193 | GCGGAACGGT | 1.03 ± 0.034
194 | TAGCCCGGTG | 1.47 ± 0.53
195 | AGGAGTCGTT | 1.02 ± 0.044
196 | CGGGGAGGGA | 1.03 ± 0.019
197 | TGTGATTAGG | 0.996 ± 0.03
198 | GGTTGAGGG | 0.997 ± 0.001
199 | TTTTCTGACG | 1.03 ± 0.02
200 | CATGATTTGA | 1.011 ± 0.0092
